Assay results reported in publication doi:10.1101/2025.11.06.687086 (bioRxiv, 2025).

Legend:
[1] = target: T1, A/Michigan/45/2015 (H1N1) HA (Influenza A virus A/Michigan/45/2015 …, UniProt A0A1J0CXU0, strain); assay: BLI; settings: both partners purified
[2] = target: T2, A/Japan/305/1957 (H2N2) HA (Influenza A virus A/Japan/305/1957 …, UniProt P03451, strain); assay: ELISA; settings: one partner purified
T2 construct: source: Sf9, baculovirus, purified from the supernatant (Ni Sepharose excel, SEC)

[3] = target: T3, A/Solomon Islands/3/2006 (H1N1) HA (Influenza A virus A/Solomon …, strain); assay: ELISA; settings: one partner purified
[4] = target: A/northern pintail/WA/40964/2014 (H5N8) HA (influenza A virus A/northern …, UniProt A0A0C4WPH5, strain); assay: ELISA; settings: one partner purified
[5] = target: A/California/07/2009 (H1N1) HA (Influenza A virus A/California/07/2009 …, UniProt C3W5X2, strain); assay: ELISA; settings: one partner purified
[6] = target: A/Beijing/262/1995 (H1N1) HA (Influenza A virus A/Beijing/262/1995 …, UniProt B4UPF7, strain); assay: ELISA; settings: one partner purified
[7] = target: T1, A/Michigan/45/2015 (H1N1) HA; assay: ELISA; settings: one partner purified
[8] = target: T4, A/Taiwan/01/1986 (H1N1) HA (Influenza A virus A/Taiwan/1/1986 (H1N1), UniProt F5CU03, strain); assay: ELISA; settings: one partner purified
T4 construct: source: bought: Sino Biological

[9] = target: T5, A/USSR/90/1977 (H1N1) HA (Influenza A virus A/USSR/90/1977 (H1N1), UniProt P03453, strain); assay: ELISA; settings: one partner purified
T5 construct: source: bought: Sino Biological

[10] = target: T3, A/Solomon Islands/3/2006 (H1N1) HA; assay: cryo-EM structure; settings: both partners purified

Measured: binding result

B1: CR9114 Fab (Fab, V domains shown)
VH: QVQLVQSGAEVKKPGSSVKVSCKSSGGTSNNYAISWVRQAPGQGLDWMGGISPIFGSTAYAQKFQGRVTISADIFSNTAYMELNSLTSEDTAVYFCARHGNYYYYSGMDVWGQGTTVTVSS
VL: QSALTQPPAVSGTPGQRVTISCSGSDSNIGRRSVNWYQQFPGTAPKLLIYSNDQRPSVVPDRFSGSKSGTSASLAISGLQSEDEAEYYCAAWDDSLKGAVFGGGTQLTVL
binds: [1]

B2: FISW84 Fab (Fab, V domains shown)
VH: EVQLLESGGGLVQPGGSLRLSCAASGFTFSSYGMAWVRQAPGKGLEWVSFISATGLSTYFADSVKGRFTISRDTTKNTLYLQMNSLRADDTAVYFCARMRRTMIAFGGNDFWGQGTLVTVSS
VL: EVVMTQSPATLSVSPGEGATLSCRASQSVNTNVAWYQQKPGQAPRLLIYGASTRATGIPARFSGSGSGTEFTLTISTLQSEDFAVYYCQQYSNWPPITFGQGTRLEIK
notes: also called anchor Fab FISW84
binds: [1]

B3: HB315 IgG (antibody, V domains shown)
VH: EVQLLESGGGLAQPGGSLRLSCTASGFTFSNFAMNWVRQAPGKGLEWVSFINSGSGSTYYADSVKGRFTISRDNSENTLFLQMNSLRAEDTAVYYCAKDLGRAIFGLVIPEGAFDIWGQGTMVTVSS
VL: EIVMTQSPSSLSASVGDRVTITCRASQSINNHLNWYQQKPGKAPKLLIYAASSLQSGVPSRFSGSGSGTDFTLTISSLQPADFATYHCQQSYGVPLTFGQGTKVEIK
not listed: [1] | [10]
binds: all other assays above

B4: HB315 Fab (Fab, V domains shown)
VH: B3 VH
VL: B3 VL
binds: [10] | [1]

B5: HB31 IgG (antibody, V domains shown)
VH: EVQLLESGGGLVQPGGSLRLSCTVSGFTSSNYDMSWVRQAPGKGLEWVSGISGTGRDTYYADSVKGRFTISRDNSKNTLSLQMNSLRADDTAVYFCARDRPVLRYFDWQPYGLDVWGKGTTVTVSS
VL: QSALTQPPSASGSPGQSVTISCTGTSSDVGGYNYVSWYQQYPSKAPKLMIYEVSKRPSGVPDRFSGSKSGNTASLTVSGLQAEDEADYYCNSYAGSNLYVFGTGTKVTVL
not listed: [1] | [10]
binds: all other assays above

B6: HB31 Fab (Fab, V domains shown)
VH: B5 VH
VL: B5 VL
binds: [10] | [1]

B7: HB34 Fab (Fab, V domains shown)
VH: B5 VH
VL: QSALTQPASVSGSPGQSITISCTGTSSDVGSYNLVSWYQQHPGKAPKLMIYEGSQRPSGVSNRFSGSKSGNTASLTISGLQAEDEADYYCCSYASSTSYVFGTGTKVTVL
binds: [10] | [1]

B8: HB34 IgG (antibody, V domains shown)
VH: B5 VH
VL: B7 VL
not listed: [1] | [10]
binds: all other assays above
